T1: FADD DD (death domain of Fas-associated protein with death domain, residues 93-184), His-tagged (UniProt Q13158 93-184)
T1 sequence (looked up): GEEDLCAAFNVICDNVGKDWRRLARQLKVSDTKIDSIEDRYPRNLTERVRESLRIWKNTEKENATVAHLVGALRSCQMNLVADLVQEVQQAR

B1: RIP1 DD (death domain of receptor interaction protein kinase 1, residues 583-664), His-tagged (domain or fragment, UniProt Q13546 583-664, looked up)
chain: TDKHLDPIRENLGKHWKNCARKLGFTQSQIDEIDHDYERDGLKEKVYQMLQKWVMREGIKGATVGKLAQALHQCSRIDLLSS
B2: GST-tagged RIP1 DD (domain or fragment, UniProt Q13546 583-664, looked up)
chain: B1 chain

Target: T1, FADD DD (death domain of Fas-associated …)
Assay: SEC-MALS

Row | Binder | stoichiometry N
1 | B1 | ~1 RIP1 DD per FADD DD (5:5)
2 | B2 | 1 GST-RIP1 DD per FADD DD (5:5)
